The target of assay [1] is T1, mouse CD137 expressed on DO11.10 cells (DO11.10-mCD137) (mouse, UniProt P20334 24-256).
T1 construct: also called CD137 on mouse T cells
The assay is described as follows: flow cytometry on DO11.10 cells expressing the target. As to the method: (§1) The binding affinity of the FS20m-232-91AA/Lob12.3 mAb² for cell-expressed mouse OX40 and CD137 was determined using flow cytometry. […] DO11.10-mOX40, DO11.10-mCD137, or HEK cell suspensions were prepared in PBS+2% BSA (Sigma, A7906) and seeded at 4×10⁶ cell/ml with 50 μl/well in V-bottomed 96-well plates (Costar, 3897). 50 μl of the antibody dilutions were added to the wells containing cells (final volume 100 μl ) and incubated at 4° C. for 1 hour. […] The plates were washed and resuspended in 100 μl of PBS containing DAPI (Biotium, cat no 40043) at 1 μg/ml. The plates were analysed using a Canto II flow cytometer (BD Bioscience) and the data analysed using FlowJo. Dead cells were identified by their higher fluorescence on the UV (405 nm/450/50) channel and excluded from analysis. […] The GMFI data was fit using log (agonist) vs response (three parameters) in GraphPad Prism Software to generate EC₅₀ values.
(Flow cytometry measures light scatter and fluorescence of single cells or particles in a stream.)

Assay [2] has as its target T2, mouse OX40 expressed on DO11.10 cells (DO11.10-mOX40) (mouse, UniProt P47741 20-272).
T2 sequence: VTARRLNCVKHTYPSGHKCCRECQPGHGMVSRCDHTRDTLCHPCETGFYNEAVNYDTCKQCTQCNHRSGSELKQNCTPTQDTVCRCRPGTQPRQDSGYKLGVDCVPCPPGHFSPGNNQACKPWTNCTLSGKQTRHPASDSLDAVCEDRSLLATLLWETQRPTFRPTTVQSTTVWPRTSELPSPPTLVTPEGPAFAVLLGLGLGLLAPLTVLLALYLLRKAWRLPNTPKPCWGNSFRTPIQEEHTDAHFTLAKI
The assay is described as follows: cell-based or functional assay.

In assay [3] the target is T2, mouse OX40 expressed on DO11.10 cells …. The assay is described as follows: flow cytometry on DO11.10 cells expressing the target. The method, then:
as §1

Usually EC50 stands for the concentration giving half of the maximal effect.

Changes are numbered by the printed parent chain.

T1 sequence (P20334 24-256): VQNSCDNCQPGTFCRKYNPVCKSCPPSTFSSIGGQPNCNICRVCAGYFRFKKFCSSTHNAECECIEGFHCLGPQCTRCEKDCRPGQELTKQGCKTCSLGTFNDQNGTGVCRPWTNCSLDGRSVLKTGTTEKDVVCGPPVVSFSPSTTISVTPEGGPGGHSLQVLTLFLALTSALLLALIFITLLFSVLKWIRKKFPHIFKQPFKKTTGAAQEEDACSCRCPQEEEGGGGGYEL

B1: FS20m-232-91AA/HEL D1.3 (antibody, V domains shown)
VH: QVQLQESGPGLVRPSQTLSLTCTVSGSTFSGYGVNWVRQPPGRGLEWIGMIWGDGNTDYNSALKSRVTMLVDTSKNQFSLRLSSVTAADTAVYYCARERDYRLDYWGQGSLVTVSS
VL: DIQMTQSPASLSASVGETVTITCRASGNIHNYLAWYQQKQGKSPQLLVYNAKTLADGVPSRFSGSGSGTQYSLKINSLQPEDFGSYYCQHFWSTPRTFGGGTKLEIKR
notes: also called OX40/HEL mock mAb^2
Consider B1, for which, in assay [1], the binding result was “no binding”.

B2: FS20m-232-91AA/4420 (antibody, human IgG1, kappa, L234A L235A)
heavy: EVKLDETGGGLVQPGRPMKLSCVASGFTFSDYWMNWVRQSPEKGLEWVAQIRNKPYNYETYYSDSVKGRFTISRDDSKSSVYLQMNNLRVEDMGIYYCTGSYYGMDYWGQGTSVTVSSASTKGPSVFPLAPSSKSTSGGTAALGCLVKDYFPEPVTVSWNSGALTSGVHTFPAVLQSSGLYSLSSVVTVPSSSLGTQTYICNVNHKPSNTKVDKKVEPKSCDKTHTCPPCPAPEAAGGPSVFLFPPKPKDTLMISRTPEVTCVVVDVSHEDPEVKFNWYVDGVEVHNAKTKPREEQYNSTYRVVSVLTVLHQDWLNGKEYKCKVSNKALPAPIEKTISKAKGQPREPQVYTLPPSRDELFDPMYYYNQVSLTCLVKGFYPSDIAVEWESNGEPLWDYKTTPPVLDSDGSFFLYSKLTVWRDRWEDGNVFSCSVMHEALHNHYTQKSLSLSPGK
light: DVVMTQTPLSLPVSLGDQASISCRSSQSLVHSNGNTYLRWYLQKPGQSPKVLIYKVSNRFSGVPDRFSGSGSGTDFTLKISRVEAEDLGVYFCSQSTHVPWTFGGGTKLEIKRTVAAPSVFIFPPSDEQLKSGTASVVCLLNNFYPREAKVQWKVDNALQSGNSQESVTEQDSKDSTYSLSSTLTLSKADYEKHKVYACEVTHQGLSSPVTKSFNRGEC
As to B2, the “mouse pan-T cell activation assay, mIL-2 release EC50, crosslinked” value in assay [2] came out at 0.257 nM.

B3: G1AA/OX86 (antibody, human IgG1, kappa, L234A L235A, V domains shown)
VH: QVQLKESGPGLVQPSQTLSLTCTVSGFSLTGYNLHWVRQPPGKGLEWMGRMRYDGDTYYNSVLKSRLSISRDTSKNQVFLKMNSLQTDDTAIYYCTRDGRGDSFDYWGQGVMVTVSS
VL: DIVMTQGALPNPVPSGESASITCRSSQSLVYKDGQTYLNWFLQRPGQSPQLLTYWMSTRASGVSDRFSGSGSGTYFTLKISRVRAEDAGVYYCQQVREYPFTFGSGTKLEIKR
In the case of B3, the “mouse pan-T cell activation assay, mIL-2 release EC50, crosslinked” value in assay [2] was determined as 2.41 nM.

B4: G1/OX86 (antibody, human IgG1, kappa, V domains shown)
VH: B3 VH with T57I
VL: B3 VL
notes: also called G1/0X86; anti-mouse OX40 mAb OX86 in a human IgG1 backbone
On to B4, for which a half-maximal effect in assay [3] (EC50) was put at 0.538 nM. Also, the binding result in assay [1] is given as “no binding”.

Source of the values: US20220048996A1 (F STAR BETA, published 2022).
